Assays:
LbCas12a D559P [1] = target: T1, LbCas12a D559P (Lachnospiraceae bacterium ND2006); experiment: cell_activity; 5 uM RNP, HEK293, 48 h, T7EI; WT 78.5; PAM not stated
LbCas12a N527R/E795L [2] = target: T2, LbCas12a N527R/E795L (Lachnospiraceae bacterium ND2006); experiment: as above
LbCas12a E795L [3] = target: T3, LbCas12a E795L (Lachnospiraceae bacterium ND2006); experiment: as above
LbCas12a D559P/E795L [4] = target: T4, LbCas12a D559P/E795L (Lachnospiraceae bacterium ND2006); experiment: as above
[5] = target: T5, LbCas12a N527R/D559P/E795L (Lachnospiraceae bacterium ND2006); experiment: as above
LbCas12a N527R [6] = target: T6, LbCas12a N527R (Lachnospiraceae bacterium ND2006); experiment: as above
LbCas12a D559P [7] = target: T1, LbCas12a D559P; experiment: cell_activity; 5 uM RNP, HEK293, 48 h, T7EI; WT 80.35; PAM not stated
LbCas12a N527R/E795L [8] = target: T2, LbCas12a N527R/E795L; experiment: as above
LbCas12a E795L [9] = target: T3, LbCas12a E795L; experiment: as above
LbCas12a N527R/D559P = LbCas12a N527R/D559P (Lachnospiraceae bacterium ND2006); experiment: as above
LbCas12a D559P/E795L [10] = target: T4, LbCas12a D559P/E795L; experiment: as above
[11] = target: T5, LbCas12a N527R/D559P/E795L; experiment: as above
LbCas12a N527R [12] = target: T6, LbCas12a N527R; experiment: as above

Binder	activity (LbCas12a D559P [1]) [% cleavage]	activity (LbCas12a N527R/E795L [2]) [% cleavage]	activity (LbCas12a E795L [3]) [% cleavage]	activity (LbCas12a D559P/E795L [4]) [% cleavage]	activity [5] [% cleavage]	activity (LbCas12a N527R [6]) [% cleavage]	activity (LbCas12a D559P [7]) [% cleavage]	activity (LbCas12a N527R/E795L [8]) [% cleavage]	activity (LbCas12a E795L [9]) [% cleavage]	activity (LbCas12a N527R/D559P) [% cleavage]	activity (LbCas12a D559P/E795L [10]) [% cleavage]	activity [11] [% cleavage]	activity (LbCas12a N527R [12]) [% cleavage]
LbCpf1 HPRT 38330-AS-23 crRNA ; HPRT 38330-AS target (protospacer as DNA, 23 nt) (ssRNA ; dsDNA, Alt-R end modifications on 5' and 3' ends) RNA: UAAUUUCUACUAAGUGUAGAUGGUUAAAGAUGGUUAAAUGAUUG DNA 1: GGTTAAAGATGGTTAAATGATTG DNA 2: CAATCATTTAACCATCTTTAACC	58.4	21.2	79.5	75.8	28.8	9.6	–	–	–	–	–	–	–
LbCpf1 HPRT 38115-AS-23 crRNA ; HPRT 38115-AS target (protospacer as DNA, 23 nt) (ssRNA ; dsDNA, Alt-R end modifications on 5' and 3' ends) RNA: UAAUUUCUACUAAGUGUAGAUACACACCCAAGGAAAGACUAUGA DNA 1: ACACACCCAAGGAAAGACTATGA DNA 2: TCATAGTCTTTCCTTGGGTGTGT	–	–	–	–	–	–	78	39.3	78.2	9.39	79.3	60.3	35
